The chains are these.
B1: Antibody II-HX-15 (antibody, human IgG4 S228P, kappa, V domains shown)
VH: VQLVQSGAEVKKPGASVKVSCKASGYTFTSYVMHWVRQAPGQGLEWMGYINPYNDGTKYNEKFKGRVTITSDKSASTAYMELSSLRSEDTAVYYCAWSGAIFEYWGQGTLVTVSS
VL: TQSPSFLSASVGDRVTITCSASSSVSYMHWFQQKPGKSPKLWIYSTSNLASGVPARFSGSGSGTSYSLTISSLQPEDFATYYCQQRSSYPYTFGQGTKLEIKR
notes: also called antibody II sample; candidate antibody II sample
B2: Antibody II-HX-11 (antibody, human IgG4 S228P, kappa, V domains shown)
VH: VQLVQSGAEVKKPGASVKVSCKASGYYTSSPVMHWVRQAPGQGLEWMGYINYFYDGTKYNEKFKGRVTITSDKSASTAYMELSSLRSEDTAVYYCAKSAIAFEYWGQGTLVTVSS
VL: TQSPSFLSASVGDRVTITCSASSTVYYMHWFQQKPGKSPKLWIYSTSNLASGVPARFSGSGSGTSYSLTISSLQPEDFATYYCQYRSSYWYTFGQGTKLEIKR
B3: Antibody II-HX-14 (antibody, human IgG4 S228P, kappa, V domains shown)
VH: VQLVQSGAEVKKPGASVKVSCKASGYFFSSFVMHWVRQAPGQGLEWMGYINYYNDATKYNEKFKGRVTITSDKSASTAYMELSSLRSEDTAVYYCARSAALSEYWGQGTLVTVSS
VL: TQSPSFLSASVGDRVTITCSASSTITYMHWFQQKPGKSPKLWIYYTSNLASGVPARFSGSGSGTSYSLTISSLQPEDFATYYCQNRTSFHYTFGQGTKLEIKR
B4: Antibody II-HX-17 (antibody, human IgG4 S228P, kappa, V domains shown)
VH: VQLVQSGAEVKKPGASVKVSCKASGYFFSSFVMHWVRQAPGQGLEWMGYINHFQDATKYNEKFKGRVTITSDKSASTAYMELSSLRSEDTAVYYCARSVGITDYWGQGTLVTVSS
VL: TQSPSFLSASVGDRVTITCSASSTVYYMHWFQQKPGKSPKLWIYSYSNLASGVPARFSGSGSGTSYSLTISSLQPEDFATYYCQQRSSYHYTFGQGTKLEIKR
B5: Antibody II-HX-13 (antibody, human IgG4 S228P, kappa, V domains shown)
VH: VQLVQSGAEVKKPGASVKVSCKASGYSFTSYVMHWVRQAPGQGLEWMGYINPYNDGTKYNEKFKGRVTITSDKSASTAYMELSSLRSEDTAVYYCARSIGITDYWGQGTLVTVSS
VL: TQSPSFLSASVGDRVTITCSASSSISYMHWFQQKPGKSPKLWIYSTSNLASGVPARFSGSGSGTSYSLTISSLQPEDFATYYCQQRSSFPYTFGQGTKLEIKR
B6: Antibody II-HX-16 (antibody, human IgG4 S228P, kappa, V domains shown)
VH: VQLVQSGAEVKKPGASVKVSCKASGYFYTSYVMHWVRQAPGQGLEWMGYINPFQDITKYNEKFKGRVTITSDKSASTAYMELSSLRSEDTAVYYCAWSAALSEYWGQGTLVTVSS
VL: TQSPSFLSASVGDRVTITCSASSSVSYMHWFQQKPGKSPKLWIYSTSNLASGVPARFSGSGSGTSYSLTISSLQPEDFATYYCQNRYSYPYTFGQGTKLEIKR
B7: Antibody II-HX-18 (antibody, human IgG4 S228P, kappa, V domains shown)
VH: VQLVQSGAEVKKPGASVKVSCKASGYYTSSPVMHWVRQAPGQGLEWMGYINPYNDGTKYNEKFKGRVTITSDKSASTAYMELSSLRSEDTAVYYCAKSGGISDYWGQGTLVTVSS
VL: TQSPSFLSASVGDRVTITCSASSSASYMHWFQQKPGKSPKLWIYSYSNLASGVPARFSGSGSGTSYSLTISSLQPEDFATYYCQYRTSYPYTFGQGTKLEIKR
B8: Antibody II-HX-10 (antibody, human IgG4 S228P, kappa, V domains shown)
VH: VQLVQSGAEVKKPGASVKVSCKASGYSTSSFVMHWVRQAPGQGLEWMGYINYYNDATKYNEKFKGRVTITSDKSASTAYMELSSLRSEDTAVYYCAWSGAIFEYWGQGTLVTVSS
VL: TQSPSFLSASVGDRVTITCSASSSVSYMHWFQQKPGKSPKLWIYSYSNLASGVPARFSGSGSGTSYSLTISSLQPEDFATYYCQNRTSFHYTFGQGTKLEIKR
B9: Antibody II-HX-19 (antibody, human IgG4 S228P, kappa, V domains shown)
VH: VQLVQSGAEVKKPGASVKVSCKASGYYTTSYVMHWVRQAPGQGLEWMGYINHFQDATKYNEKFKGRVTITSDKSASTAYMELSSLRSEDTAVYYCAWSGAIFEYWGQGTLVTVSS
VL: TQSPSFLSASVGDRVTITCSASSSGYYMHWFQQKPGKSPKLWIYTTSNLASGVPARFSGSGSGTSYSLTISSLQPEDFATYYCQQRSSYPYTFGQGTKLEIKR
B10: Antibody I-HX-2 (antibody, human IgG4 S228P, kappa, V domains shown)
VH: VQLVQSGAEVKKPGASVKVSCKASGYSFTSYWMHWVRQAPGQGLEWMGAIYPGNSDTSYNQKFKGRVTITAVTSASTAYMELSSLRSEDTAVYYCTRWGDGYYHAMDHWGQGTLVTVSS
VL: DIQMTQSPSSLSASVGDRVTITCRASQDIGNTLNWLQQKPGKAIKRLIYATSSLDSGVPKRFSGSRSGSDYSLTISSLQPEDFATYYCLQYASSPFTFGQGTKLEIKR
notes: also called antibody I sample; candidate antibody I sample
B11: Antibody I-HX-5 (antibody, human IgG4 S228P, kappa, V domains shown)
VH: VQLVQSGAEVKKPGASVKVSCKASGYTFTSYWMHWVRQAPGQGLEWMGAIYWAHSETSYNQKFKGRVTITAVTSASTAYMELSSLRSEDTAVYYCTHWLEVYFHGMDHWGQGTLVTVSS
VL: DIQMTQSPSSLSASVGDRVTITCRASQNGINTLNWLQQKPGKAIKRLIYVTSSLDSGVPKRFSGSRSGSDYSLTISSLQPEDFATYYCLYYASYFFTFGQGTKLEIKR
B12: Antibody I-HX-3 (antibody, human IgG4 S228P, kappa, V domains shown)
VH: VQLVQSGAEVKKPGASVKVSCKASGYTYYFYWMHWVRQAPGQGLEWMGAIYHGNSETSYNQKFKGRVTITAVTSASTAYMELSSLRSEDTAVYYCTHWADAYFHGMNHWGQGTLVTVSS
VL: DIQMTQSPSSLSASVGDRVTITCRASQNIANTLNWLQQKPGKAIKRLIYVSSSLDSGVPKRFSGSRSGSDYSLTISSLQPEDFATYYCLYYASYFFTFGQGTKLEIKR
B13: Antibody I-HX-4 (antibody, human IgG4 S228P, kappa, V domains shown)
VH: VQLVQSGAEVKKPGASVKVSCKASGYTYNFYWMHWVRQAPGQGLEWMGAIYHVQSDTSYNQKFKGRVTITAVTSASTAYMELSSLRSEDTAVYYCTHWLEVYFHGMDHWGQGTLVTVSS
VL: DIQMTQSPSSLSASVGDRVTITCRASQEIGQTLNWLQQKPGKAIKRLIYVTSSLDSGVPKRFSGSRSGSDYSLTISSLQPEDFATYYCLYFASSPFTFGQGTKLEIKR
B14: Antibody I-HX-8 (antibody, human IgG4 S228P, kappa, V domains shown)
VH: VQLVQSGAEVKKPGASVKVSCKASGYSFTTYWMHWVRQAPGQGLEWMGAIYPVHSETSYNQKFKGRVTITAVTSASTAYMELSSLRSEDTAVYYCTHWIEAFFHLMQHWGQGTLVTVSS
VL: DIQMTQSPSSLSASVGDRVTITCRASQNIGQTLNWLQQKPGKAIKRLIYSTSSLDSGVPKRFSGSRSGSDYSLTISSLQPEDFATYYCLQYASSPFTFGQGTKLEIKR
B15: Antibody I-HX-1 (antibody, human IgG4 S228P, kappa, V domains shown)
VH: VQLVQSGAEVKKPGASVKVSCKASGYSYYFYWMHWVRQAPGQGLEWMGAIYHINSDTSYNQKFKGRVTITAVTSASTAYMELSSLRSEDTAVYYCTRWGEGYYHAMNHWGQGTLVTVSS
VL: DIQMTQSPSSLSASVGDRVTITCRASQDLGNTLNWLQQKPGKAIKRLIYASSSLDSGVPKRFSGSRSGSDYSLTISSLQPEDFATYYCLYYASTPFTFGQGTKLEIKR
notes: expressed in HEK 293 or CHO cells
B16: Antibody I-HX-7 (antibody, human IgG4 S228P, kappa, V domains shown)
VH: VQLVQSGAEVKKPGASVKVSCKASGYSFTTYWMHWVRQAPGQGLEWMGAIYWAHSETSYNQKFKGRVTITAVTSASTAYMELSSLRSEDTAVYYCTRWGDGYYHAMDHWGQGTLVTVSS
VL: DIQMTQSPSSLSASVGDRVTITCRASQEIGQTLNWLQQKPGKAIKRLIYATSSLDSGVPKRFSGSRSGSDYSLTISSLQPEDFATYYCLYYASTPFTFGQGTKLEIKR
B17: Antibody I-HX-6 (antibody, human IgG4 S228P, kappa, V domains shown)
VH: VQLVQSGAEVKKPGASVKVSCKASGYSFSSYWMHWVRQAPGQGLEWMGAIYPGQSETSYNQKFKGRVTITAVTSASTAYMELSSLRSEDTAVYYCTHWIDGYFHVMDHWGQGTLVTVSS
VL: DIQMTQSPSSLSASVGDRVTITCRASQEIGQTLNWLQQKPGKAIKRLIYGTSSLDSGVPKRFSGSRSGSDYSLTISSLQPEDFATYYCLNYISSPFTFGQGTKLEIKR

The target in the first test is T1, human PD-L1 antigen (Beijing Sino Biological Inc, Catalog No. #10084-H08H-100) (human, UniProt Q9NZQ7 19-239).
T1 construct: Bought antigen; also called the antigen
T1 sequence (Q9NZQ7 19-239 limits assumed): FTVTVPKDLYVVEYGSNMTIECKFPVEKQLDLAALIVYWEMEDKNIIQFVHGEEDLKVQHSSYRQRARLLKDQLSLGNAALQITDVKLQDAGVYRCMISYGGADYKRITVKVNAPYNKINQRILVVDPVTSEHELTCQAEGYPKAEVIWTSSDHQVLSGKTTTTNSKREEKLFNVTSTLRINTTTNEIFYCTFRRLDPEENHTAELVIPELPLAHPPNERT
Put plainly: BLI (ForteBIO Octet), antibody captured on sensor, human PD-L1 in solution.
B1: the Kd (as a rule, the constant that tells how readily two partners part at equilibrium) was found to be 0.149 nM; the koff (in general, a measure of how fast the partners let go of each other) was found to be 5.6e-07 s⁻¹; the kon (as a rule, the rate constant with which the complex forms) is 3760 M⁻¹ s⁻¹.

As to B2, the Kd turned out to be 2.8 nM, the koff came out at 7.71e-06 s⁻¹ and the kon is 2750 M⁻¹ s⁻¹.

Take B3: the Kd was determined as 3.19 nM, the koff stood at 9.55e-06 s⁻¹ and the kon worked out at 2990 M⁻¹ s⁻¹.

Turning to B4, the Kd was 1.82 nM, the koff was determined as 4.92e-06 s⁻¹ and the kon is 2710 M⁻¹ s⁻¹.

As for B5, the affinity, expressed as Kd, was 0.707 nM; the koff came to 2.13e-06 s⁻¹; the kon came to 3010 M⁻¹ s⁻¹.

B6 yielded a Kd of 3.71 nM, a koff of 9.19e-06 s⁻¹ and a kon of 2500 M⁻¹ s⁻¹.

In turn, B7 showed a Kd of 0.624 nM, a koff of 1.92e-06 s⁻¹ and a kon of 3080 M⁻¹ s⁻¹.

For the molecule B8, the Kd was determined as 3.67 nM, the koff stood at 9.2e-06 s⁻¹ and the on-rate (kon) worked out at 2510 M⁻¹ s⁻¹.

Regarding B9, the dissociation constant (Kd) worked out at 1.23 nM, the koff amounted to 3.75e-06 s⁻¹ and the on-rate constant (kon) was 3040 M⁻¹ s⁻¹.

A further test deals with T1, human PD-L1 antigen (Beijing Sino …). The test is described as above. The source holds these as a separate data set.
In the case of B10, the Kd turned out to be 0.0291 nM, the koff is 2.7e-07 s⁻¹ and the kon is 9280 M⁻¹ s⁻¹.

B11 displayed a Kd of 0.459 nM, a koff of 3.27e-06 s⁻¹ and a kon of 7120 M⁻¹ s⁻¹.

Turning to B12, the affinity, expressed as Kd, was 0.271 nM; the koff worked out at 1.92e-06 s⁻¹; the on-rate (kon) was determined as 7080 M⁻¹ s⁻¹.

On to B13, for which the equilibrium dissociation constant (Kd) is 0.11 nM, the koff was determined as 8.95e-07 s⁻¹ and the kon stood at 8100 M⁻¹ s⁻¹.

With B14, binding was characterised by a dissociation constant (Kd) of 0.259 nM, the koff was found to be 1.81e-06 s⁻¹ and the kon was determined as 6990 M⁻¹ s⁻¹.

In the case of B15, the Kd came to 0.046 nM, the koff is 4.1e-07 s⁻¹ and the kon turned out to be 8920 M⁻¹ s⁻¹.

B16: the dissociation constant Kd was determined as 0.047 nM, the koff worked out at 4.27e-07 s⁻¹ and the kon was 9090 M⁻¹ s⁻¹.

Take B17: binding was characterised by a dissociation constant (Kd) of 0.0481 nM, the koff is 4.29e-07 s⁻¹ and the kon stood at 8930 M⁻¹ s⁻¹.

The values are drawn from patent US20230143294A1 (SYNBIO TECHNOLOGIES, published 2023).
